Tests used:
Assay in all cases: cell-based or functional assay
[1] = target: BG505 (T332N) N386A (HIV-1)
[2] = target: JR-CSF N301A (HIV-1) (UniProt P20871)
[3] = target: JR-CSF (HIV-1) (UniProt P20871)
[4] = target: JR-CSF N295A (HIV-1) (UniProt P20871)
[5] = target: HIV-1 envelope (Env) of pseudovirus 3415.v1.c1 (HIV-1)
[6] = target: HIV-1 envelope (Env) of pseudovirus Ce704809221_1B3 (HIV-1)
[7] = target: HIV-1 envelope (Env) of pseudovirus ZM233M.PB6 (HIV-1)
[8] = target: HIV-1 envelope (Env) of pseudovirus 249M B10 (HIV-1)
[9] = target: HIV-1 envelope (Env) of pseudovirus ZM249M.PL1 (HIV-1)
[10] = target: HIV-1 envelope (Env) of pseudovirus Q461.e2 (HIV-1)
[11] = target: HIV-1 envelope (Env) of pseudovirus CNE5 (HIV-1)
[12] = target: HIV-1 envelope (Env) of pseudovirus Ce0393_C3 (HIV-1)
[13] = target: HIV-1 envelope (Env) of pseudovirus CAP210.2.00.E8 (HIV-1)
[14] = target: HIV-1 envelope (Env) of pseudovirus 231965.c01 (HIV-1)
[15] = target: HIV-1 envelope (Env) of pseudovirus Du172.17 (HIV-1)
[16] = target: HIV-1 envelope (Env) of pseudovirus HIV-16055-2.3 (HIV-1)
[17] = target: HIV-1 envelope (Env) of pseudovirus BF1266.431a (HIV-1)
[18] = target: HIV-1 envelope (Env) of pseudovirus ZM53M.PB12 (HIV-1)
[19] = target: HIV-1 envelope (Env) of pseudovirus 3817.v2.c59 (HIV-1)
[20] = target: HIV-1 envelope (Env) of pseudovirus Ce1086_B2 (HIV-1)
[21] = target: HIV-1 envelope (Env) of pseudovirus CAP45.2.00.G3 (HIV-1)
[22] = target: HIV-1 envelope (Env) of pseudovirus 246F C1G (HIV-1)
[23] = target: HIV-1 envelope (Env) of pseudovirus Q769.d22 (HIV-1)
[24] = target: HIV-1 envelope (Env) of pseudovirus 6545.v4.c1 (HIV-1)
[25] = target: HIV-1 envelope (Env) of pseudovirus Ce1176_A3 (HIV-1)
[26] = target: HIV-1 envelope (Env) of pseudovirus T255-34 (HIV-1)
[27] = target: HIV-1 envelope (Env) of pseudovirus 6244_13_B5_4576 (HIV-1)
[28] = target: HIV-1 envelope (Env) of pseudovirus SC05_8C11_2344 (HIV-1)
[29] = target: HIV-1 envelope (Env) of pseudovirus Du422.1 (HIV-1)
[30] = target: HIV-1 envelope (Env) of pseudovirus ZM197M.PB7 (HIV-1)
[31] = target: HIV-1 envelope (Env) of pseudovirus Ce1172_H1 (HIV-1)
[32] = target: HIV-1 envelope (Env) of pseudovirus CNE19 (HIV-1)
[33] = target: HIV-1 envelope (Env) of pseudovirus CNE17 (HIV-1)
[34] = target: HIV-1 envelope (Env) of pseudovirus YU2_N332K (HIV-1) (UniProt P35961)
[35] = target: HIV-1 envelope (Env) of pseudovirus ZM109F.PB4 (HIV-1)
[36] = target: HIV-1 envelope (Env) of pseudovirus X1632_S2_B10 (HIV-1)
[37] = target: HIV-1 envelope (Env) of pseudovirus C4118.c09 (HIV-1)
[38] = target: HIV-1 Env of pseudovirus ZM247v1 (Rev-) (HIV-1)
[39] = target: HIV-1 Env of pseudovirus 1394C9G1 (Rev-) (HIV-1)

Q: Which results are given for 354BG8 (antibody)?
A: IC50 in TZM-bl assay [1]: 0.004 µg/mL; IC50 in TZM-bl assay [2]: 0.006 µg/mL; IC50 in TZM-bl assay [3]: 0.009 µg/mL; IC50 in TZM-bl assay [4]: 0.006 µg/mL

Q: Which IC50 in TZM-bl assay [5] does the source give for BG1 (antibody) here?
A: 14.4 µg/mL

Q: What about the IC80 in TZM-bl assay [5] of the same substance?
A: > 30 µg/mL

Q: What about the IC50 in TZM-bl assay [6] of the same substance?
A: 3.25 µg/mL

Q: What about the IC80 in TZM-bl assay [6] of the same substance?
A: 18.5 µg/mL

Q: What about the IC50 in TZM-bl assay [7] of the same substance?
A: > 30 µg/mL

Q: What about the IC80 in TZM-bl assay [7] of the same substance?
A: > 30 µg/mL

Q: And the IC50 in TZM-bl assay [8]?
A: 1.47 µg/mL

Q: And the IC80 in TZM-bl assay [8]?
A: 5.45 µg/mL

Q: And the IC50 in TZM-bl assay [9]?
A: 1.22 µg/mL

Q: And the IC80 in TZM-bl assay [9]?
A: 6.79 µg/mL

Q: And the IC50 in TZM-bl assay [10]?
A: > 30 µg/mL

Q: And the IC80 in TZM-bl assay [10]?
A: > 30 µg/mL

Q: What about the IC50 in TZM-bl assay [11] of the same substance?
A: 0.351 µg/mL

Q: What about the IC80 in TZM-bl assay [11] of the same substance?
A: 1.28 µg/mL

Q: What about the IC50 in TZM-bl assay [12] of the same substance?
A: > 30 µg/mL

Q: What about the IC80 in TZM-bl assay [12] of the same substance?
A: > 30 µg/mL

Q: What about the IC50 in TZM-bl assay [13] of the same substance?
A: > 30 µg/mL

Q: And the IC80 in TZM-bl assay [13]?
A: > 30 µg/mL

Q: And the IC50 in TZM-bl assay [14]?
A: > 30 µg/mL

Q: And the IC80 in TZM-bl assay [14]?
A: > 30 µg/mL

Q: And the IC50 in TZM-bl assay [15]?
A: > 30 µg/mL

Q: What about the IC80 in TZM-bl assay [15] of the same substance?
A: > 30 µg/mL

Q: And the IC50 in TZM-bl assay [16]?
A: 4.3 µg/mL

Q: What about the IC80 in TZM-bl assay [16] of the same substance?
A: 16.9 µg/mL

Q: And the IC50 in TZM-bl assay [17]?
A: > 30 µg/mL

Q: What about the IC80 in TZM-bl assay [17] of the same substance?
A: > 30 µg/mL

Q: What about the IC50 in TZM-bl assay [18] of the same substance?
A: > 30 µg/mL

Q: What about the IC80 in TZM-bl assay [18] of the same substance?
A: > 30 µg/mL

Q: And the IC50 in TZM-bl assay [19]?
A: 11.1 µg/mL

Q: And the IC80 in TZM-bl assay [19]?
A: > 30 µg/mL

Q: What about the IC50 in TZM-bl assay [20] of the same substance?
A: > 30 µg/mL

Q: What about the IC80 in TZM-bl assay [20] of the same substance?
A: > 30 µg/mL

Q: What about the IC50 in TZM-bl assay [21] of the same substance?
A: 0.149 µg/mL

Q: What about the IC80 in TZM-bl assay [21] of the same substance?
A: 0.383 µg/mL

Q: And the IC50 in TZM-bl assay [22]?
A: > 30 µg/mL

Q: What about the IC80 in TZM-bl assay [22] of the same substance?
A: > 30 µg/mL

Q: And the IC50 in TZM-bl assay [23]?
A: > 30 µg/mL

Q: What about the IC80 in TZM-bl assay [23] of the same substance?
A: > 30 µg/mL

Q: And the IC50 in TZM-bl assay [24]?
A: > 30 µg/mL

Q: What about the IC80 in TZM-bl assay [24] of the same substance?
A: > 30 µg/mL

Q: And the IC50 in TZM-bl assay [25]?
A: 0.031 µg/mL

Q: And the IC80 in TZM-bl assay [25]?
A: 0.165 µg/mL

Q: And the IC50 in TZM-bl assay [26]?
A: 11.6 µg/mL

Q: What about the IC80 in TZM-bl assay [26] of the same substance?
A: > 30 µg/mL

Q: And the IC50 in TZM-bl assay [27]?
A: > 30 µg/mL

Q: What about the IC80 in TZM-bl assay [27] of the same substance?
A: > 30 µg/mL

Q: What about the IC50 in TZM-bl assay [28] of the same substance?
A: > 30 µg/mL

Q: And the IC80 in TZM-bl assay [28]?
A: > 30 µg/mL

Q: What about the IC50 in TZM-bl assay [29] of the same substance?
A: 1.8 µg/mL

Q: What about the IC80 in TZM-bl assay [29] of the same substance?
A: 13.7 µg/mL

Q: And the IC50 in TZM-bl assay [30]?
A: > 30 µg/mL

Q: And the IC80 in TZM-bl assay [30]?
A: > 30 µg/mL

Q: And the IC50 in TZM-bl assay [31]?
A: > 30 µg/mL

Q: And the IC80 in TZM-bl assay [31]?
A: > 30 µg/mL

Q: And the IC50 in TZM-bl assay [32]?
A: 1.27 µg/mL

Q: And the IC80 in TZM-bl assay [32]?
A: 10.9 µg/mL

Q: What about the IC50 in TZM-bl assay [33] of the same substance?
A: > 30 µg/mL

Q: What about the IC80 in TZM-bl assay [33] of the same substance?
A: > 30 µg/mL

Q: And the IC50 in TZM-bl assay [34]?
A: 19.4 µg/mL

Q: What about the IC80 in TZM-bl assay [34] of the same substance?
A: > 30 µg/mL

Q: What about the IC50 in TZM-bl assay [35] of the same substance?
A: > 30 µg/mL

Q: And the IC80 in TZM-bl assay [35]?
A: > 30 µg/mL

Q: And the IC50 in TZM-bl assay [36]?
A: 0.079 µg/mL

Q: What about the IC80 in TZM-bl assay [36] of the same substance?
A: 0.25 µg/mL

Q: What about the IC50 in TZM-bl assay [37] of the same substance?
A: 22.8 µg/mL

Q: What about the IC80 in TZM-bl assay [37] of the same substance?
A: > 30 µg/mL

Q: What does the source list for BG18 IgG (354BG18) (antibody)?
A: IC50 in TZM-bl assay [38]: 1.45 µg/mL; IC80 in TZM-bl assay [38]: 8.72 µg/mL; IC50 in TZM-bl assay [39]: 0.029 µg/mL; IC80 in TZM-bl assay [39]: 0.35 µg/mL
